{"source": "the nanobody polyreactivity screen of Harvey et al. (2022)", "data": [{"assay": "yeast display, Sf9 membrane polyspecificity reagent, FACS + sequencing; frameworks hold sequencing errors", "in_short": "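Synthetic nanobody libraries on Saccharomyces cerevisiae BJ5465 were galactose-induced for 36–48 hours, stained 1 hour at 4 °C with 10% biotinylated, detergent-solubilized Sf9 membrane reagent and enriched on streptavidin microbeads. FACS then separated cells into low and high (top ~1%) gates by anti-HA (expression) and streptavidin (reagent binding) fluorescence. Genes were colony-PCR amplified, MiSeq 2 × 250 sequenced and CDR-length filtered. A clone's polyreactivity label is that of its gate of origin.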", "values": [{"sequence": "QVQLVESGGGLVQAGGSLRLSCAASGFIFTYNAMGWYRQAPGKERELVASIRSTGGSTYYADSVKGRFTISRDNAKNTVYLQMNSLKPEDTAVYYCAARARGTNMYYWGQGTQVTVSS", "polyreactivity (PSR sort gate)": "high polyreactivity"}, {"sequence": "QVQLVESGGGLVQAGGSLRLSCAASGFIFTYNTMGWDRQAPGKERELVAAISLRGGNTYYADSVKGRFTISRDNAKNTVYLQMHSLKPEDTAVYYCAALGKYRSGNYFGQGTQVTVSS", "polyreactivity (PSR sort gate)": "high polyreactivity"}, {"sequence": "QVQLVESGGGLVQAGGSLRLSCAASGFIFTYYAMGWYRPEHGKERDLVATINWSDGSTRYADSVKGRFTISRDNAKNTDYLQMNSLKPEDTAVYYCAKDWFNRPSVEMDYWGQGTQVTVSS", "polyreactivity (PSR sort gate)": "low polyreactivity"}, {"sequence": "QVQLVESGGGLVQAGGSLRLSCAASGFIFTYYAMGWYRQAPGKERELVAAISWDGGSTYYADSVKGRFTISRDNAKNTVYLQMNSLKPEDTAVYYCNRDLYGYVRYDYWGQGTQVTVSS", "polyreactivity (PSR sort gate)": "low polyreactivity"}, {"sequence": "QVQLVESGGGLVQAGGSLRLSCAASGFIFVANAMGWYRQAPGKERELVAAISFSGGRTYYADSVKGRFTISRDNAKNTVYLQMNSLKPEDTAVYYCNTVSEWWAGDHPDAEFDYWGQGTQVTVSS", "polyreactivity (PSR sort gate)": "low polyreactivity"}, {"sequence": "QVQLVESGGGLVQAGGSLRLSCAASGFIFVDNAMGWYRQAPGKERELVAAITYRGGSTYYADSVKGRFTISRDNAKNTVYLQMNSLKPEVTAVYYCNADYGDTFEYDYWGQGTQVTVSS", "polyreactivity (PSR sort gate)": "low polyreactivity"}, {"sequence": "QVQLVESGGGLVQAGGSLRLSCAASGFIFVDYTMGWYRQAPGKERELVAAITWTGGSTYADSVKGRFTISRDNAKNTVYLQMNSLKPEDTAVYYCAAGQGPDMDYWGQGTQVTVSS", "polyreactivity (PSR sort gate)": "low polyreactivity"}, {"sequence": "QVQLVESGGGLVQAGGSLRLSCAASGFIFVENAMGWYIQAPGKERELVASISRRGGSTYYADSVKGRFTISRDNAKNTVYLQMNSLKPEDTAVYYCAATLGRTRYNYWGQGTQVTVSS", "polyreactivity (PSR sort gate)": "high polyreactivity"}, {"sequence": "QVQLVESGGGLVQAGGSLRLSCAASGFIFVFYAMGWYIQAPGKERELVAAITWSGGGTYYADSVKGRFTISRDNAKNTVYLQMNSLKPEDTAVYYCNTDASPYLFDYWGQGTQVTVSS", "polyreactivity (PSR sort gate)": "low polyreactivity"}, {"sequence": "QVQLVESGGGLVQAGGSLRLSCAASGFIFVGYAMGWYRQAPGKERELVAAISYSGGRTYYADSVKGRFTISRDNAKNTVYLQMNSLKPEDTAVYYCAAQSRYGGKFYYWGQGTQVTVSS", "polyreactivity (PSR sort gate)": "high polyreactivity"}, {"sequence": "QVQLVESGGGLVQAGGSLRLSCAASGFIFVKNAMGWYRQAPGKERELVAVISTRGGRTYYADSVKGRFTISRDNAKNTVYLQMNSMKPEDTAVYYCAAGDQYKTRRNGYGYWGQGTQVTVSS", "polyreactivity (PSR sort gate)": "high polyreactivity"}, {"sequence": "QVQLVESGGGLVQAGGSLRLSCAASGFIFVKYAMGWYIQAPGKERELVAAITTSGTGTFYADSVKGRFTISRDNAKYTVYLQMNRLKPEDTAVYYCNALGHPGDDWGQGTQVTVSS", "polyreactivity (PSR sort gate)": "low polyreactivity"}, {"sequence": "QVQLVESGGGLVQAGGSLRLSCAASGFIFVPYALGWYRQAPGKERELVAAISSGGSTYYADSVKGRFTISRDNAKNTVYLQMNSLKPEDTAVYYCNTRYYLYQYRYDYWGQGTQVTVSS", "polyreactivity (PSR sort gate)": "low polyreactivity"}, {"sequence": "QVQLVESGGGLVQAGGSLRLSCAASGFIFVRNAMGLYRQAPGKEREFVAAITRSGGSTYYADSVKGRFTISRDNAKNTVYLQMNSLKPEDTAVYYCAARIHGSWSFDYWGQGTQVTVSS", "polyreactivity (PSR sort gate)": "low polyreactivity"}, {"sequence": "QVQLVESGGGLVQAGGSLRLSCAASGFIFVRNTRGWYRQAPGKERELVAAISSRGGRTYYADSVKGRFTISRDNAKNTVYLQMNSLKPEDTAVYYCAKAHSVNQRYDYWGQGTQVTVSS", "polyreactivity (PSR sort gate)": "high polyreactivity"}, {"sequence": "QVQLVESGGGLVQAGGSLRLSCAASGFIFVRYAMGWYRQAPGKEREFVASITRSDGSTYADSVKGRFTISRDNAKNTVYIQMNSLKPEDTAVYYCNKDNHDVELPVEFEYWGQGTQVTVSS", "polyreactivity (PSR sort gate)": "high polyreactivity"}, {"sequence": "QVQLVESGGGLVQAGGSLRLSCAASGFIFVRYAMGWYRQAPGKERELVAAISKSGGRTYYADSVKGRFTISRDNAKNTVYLQMNSLKPEDTAVYYCAAYYYVGRVVSFDYWGQGTQVTVSS", "polyreactivity (PSR sort gate)": "high polyreactivity"}]}]}
